Biological target: the molecule itself
Assay: crystal structure

B1: human pyruvate kinase M2 (His6-hPKM2) (enzyme)
chain: not shown
stoichiometry N: 4
